This is an account of results in publication PMC6530869.

Holding throughout (details): SpdR and RtrB: 20 mM HEPES pH 7.8, 4 mM MgCl2, 37 mM KCl, 1 mM CaCl2, 0.75 mM DTT, 8% glycerol, 75 ug/ml BSA; RtrA: 10 mM Tris pH 7.6, 2 mM MgCl2, 50 mM KCl …
Data set [1] has as its target T1, RtrB (Caulobacter crescentus (NA1000?)) (UniProt A0A0H3C9Q5).
T1 sequence: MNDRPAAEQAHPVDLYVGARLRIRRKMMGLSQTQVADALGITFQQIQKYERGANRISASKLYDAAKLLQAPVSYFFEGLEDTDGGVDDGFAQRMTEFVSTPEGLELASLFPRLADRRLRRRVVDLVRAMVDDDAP
Kind of data set: competition.

Data set [2] deals with T2, RtrA (Caulobacter crescentus (NA1000?)) (UniProt A0A0H3CB76).
T2 sequence: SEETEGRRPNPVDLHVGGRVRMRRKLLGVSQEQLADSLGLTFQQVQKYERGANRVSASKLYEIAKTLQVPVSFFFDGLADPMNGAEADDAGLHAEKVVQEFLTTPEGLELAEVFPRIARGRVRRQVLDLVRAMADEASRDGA
The data set is described as follows: competition.

Data set [3] has as its target T1, RtrB (Caulobacter crescentus (NA1000?)). Kind of data set: EMSA. (In general: A gel shift assay detects complexes by their altered migration in electrophoresis.)
Data set [4] deals with T3, SpdR(D64E) D64E (Caulobacter crescentus (NA1000?)) (UniProt A0A0H3C6B9).
T3 sequence: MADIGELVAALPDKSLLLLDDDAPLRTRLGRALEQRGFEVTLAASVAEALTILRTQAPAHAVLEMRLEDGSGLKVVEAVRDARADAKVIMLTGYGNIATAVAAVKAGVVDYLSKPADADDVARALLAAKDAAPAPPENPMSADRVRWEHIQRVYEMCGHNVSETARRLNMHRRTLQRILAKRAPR
The data set is described as follows: EMSA.

In data set [5] the target is T2, RtrA (Caulobacter crescentus (NA1000?)). The data set is described as follows: EMSA.

With “TGGTGGTCCTGATCCTCCTGCAGCGACCGATCGTGCATCGCGCGCTGGTTCCCGCGCTCCTGCTCGCCTGGCTGGTCCTGAACGGGACGGACGTGATGCACTACAGCTAGGGCTCGGCGGCTCTGGTAAACAACCCAACCCCGATCAACGAAGGTTTAGAAAGCTTTAAGAGAAACGTTGCGAATTGTAAAATTCTTCTCTGGGTTGAAACCCATTTCGGGTGTATCGATGAGGTGTCGGGCCATTTATTGAGCGCGGACAGGATGTTGTCAGTG (double strand) [unlabeled specific hfiA competitor]”, the binding result in data set [1] and in data set [2] was “binds” throughout.

On to “TGGTGGTCCTGATCCTCCTGCAGCGACCGATCGTGCATCGCGCGCTGGTTCCCGCGCTCCTGCTCGCCTGGCTGGTCCTGAACGGGACGGACGTGATGCACTACAGCTAGGGCTCGGCGGCTCTGGTAAACAACCCAACCCCGATCAACGAAGGTTTAGAAAGCTTTAAGAGAAACGTTGCGAATTGTAAAATTCTTCTCTGGGTTGAAACCCATTTCGGGTGTATCGATGAGGTGTCGGGCCATTTATTGAGCGCGGACAGGATGTTGTCAGTG (double strand) [hfiA promoter probe]”, for which the values for the binding entry in data set [3], in data set [4] and in data set [5] were “binds”, “no binding” and “binds”, respectively.

In the case of “CTAGGGACTGCCATCTTCGGCTGTATTTCAGATTTGTTTCCGCATTGTGGCTGCGACGAAATGTCGCGGTACCCGCTTGTGCGCTGTTTTGACGCGATTTCGTCATTGACGGCTCTCCTCACGCGAGAACACTGTTCTTGTAGTGCTTGCTCCGATGGGCTGATTGGGCAAGCCAGAGGGGTGGGATGTCTGGTTACGA (double strand) [cspD promoter probe]”, the binding entry in data set [4] is reported as “binds”.
